Experimental data reported in PMC6482957 (Nature structural & molecular biology, 2018).

Experiments:
[1] = target: T1, human p300 ZZ domain (aa 1663–1713) (human, UniProt Q09472 1663-1713); assay: crystal structure
T1 sequence: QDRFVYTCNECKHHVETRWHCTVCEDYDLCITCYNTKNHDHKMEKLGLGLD

[2] = target: T1, human p300 ZZ domain (aa 1663–1713); assay: NMR titration
[3] = target: T2, p300 HAT-ZZ domain (aa 1287–1713, Y1467F) (human, UniProt Q09472 1287-1713, Y1467F); assay: NMR titration
T2 sequence: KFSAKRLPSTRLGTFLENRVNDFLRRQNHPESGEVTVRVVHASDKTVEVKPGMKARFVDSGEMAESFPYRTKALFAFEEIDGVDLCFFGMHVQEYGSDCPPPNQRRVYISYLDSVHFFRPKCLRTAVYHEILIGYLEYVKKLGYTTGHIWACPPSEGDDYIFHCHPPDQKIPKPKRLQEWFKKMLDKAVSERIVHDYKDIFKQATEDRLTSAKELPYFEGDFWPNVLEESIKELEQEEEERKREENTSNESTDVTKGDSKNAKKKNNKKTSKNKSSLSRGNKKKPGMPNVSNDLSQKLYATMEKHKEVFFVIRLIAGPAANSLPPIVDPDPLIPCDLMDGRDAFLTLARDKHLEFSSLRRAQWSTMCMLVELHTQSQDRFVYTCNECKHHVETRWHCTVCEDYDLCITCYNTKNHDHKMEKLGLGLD

B1: histone H3 tail (residues 1–6) (peptide)
peptide: ARTKQT
binding result [1]: binds

B2: H3A1V1–6 (peptide)
peptide: VRTKQT
fold reduction in binding against the peptide with Ala1 [2]: ~3 fold

B3: p300 BD-RING-PHD region (aa 1047–1278) (domain or fragment)
chain: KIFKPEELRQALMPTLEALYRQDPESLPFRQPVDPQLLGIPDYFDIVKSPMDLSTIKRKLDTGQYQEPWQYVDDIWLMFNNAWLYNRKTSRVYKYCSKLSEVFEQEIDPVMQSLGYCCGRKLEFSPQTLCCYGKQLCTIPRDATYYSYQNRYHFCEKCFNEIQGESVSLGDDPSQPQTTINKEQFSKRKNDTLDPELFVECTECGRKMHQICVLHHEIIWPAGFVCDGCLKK
binding result [3]: binds
